Reference: the NTF2 design screens of Basanta et al. (2020)

Test: protease stability score; higher = more stable; yeast display proteolysis, trypsin and chymotrypsin;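 note: relative to predicted unfolded state with 0 unfolded-like and 1 meaning tenfold more protease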

| Sequence | protease stability score |
| --- | --- |
| TEDERLFHETLKIFEHAVQTGDEEELERMLDPNVRSTINGVRLHGRESFRKLFHIIWREIRFESVDVKRIHIQGDKMIWFTRIDGIFNGQRDLREVTIFADKIDGRWIFKEVDVR | 2.1 |
| TEDERMNKEFHRLIWELIDTGDEETLRKLADPNTRLEVNGKTIIGREEFLSIWKHELHMLGVKHLEIHIRSVMFFENRVENDVELVLHIGEYEERRRIHIFLIKINGKWYHKSERIR | 1.46 |
| TEDERMVSEHLKQWLHSLRTGDEDTIQRLFDPHTRIIFEGHEFIGMEDMEEWLTKFHEEARSHKLIIKRIHIIGDKVHVEGVLDGEYNGRRHELKVIIIALKINGRWVMHQIEIR | 1.97 |
| TEDETIAELALEEFIRILETGDEDDVNRLLDPHVRVDIDGKEIHGREHVYHHLRNLGVRIKIEWKRIRVVDGKVDSDGHVIERFNGRDIEVKSQFIMRKIDGRWVVHHFTRR | 0.488 |
| TEDHEDLRRFWEYFEEAFRTGDWKALSDLADPNVKIRIGDKLHVGRDDYYEFLRELIERVDHMELRLKRVHLVGDKLHVDSTLDLHVNGKRIHSRSRFTFTKVDGKWKVESVHYE | 1.61 |
| TEDHEIVEDALRLWWTSVHTGDETLMSRLADPDVRLIVGDKHFHGREKFTRTMKELDDEMRFHHLEIKEFELFDGRIKINVRLRGTIGDKHTIFEVNVINLKVNGKWLLKSLEVR | 1.1 |
| TEDHERIKKHIEILMHNLKTGNFEALVRMADPHVRFRLVQGNFHDETHGRDAWREVLERLGIDHIEIRDIRIHLYDGRLEMRIDGISRFNGREHKVELIIIIDKIDGRWRISEVELRIE | 2.15 |
| TEDHRDIYRIVKLLIEFFKTGDFDSLRHLADPNTRLDIGDKHRHGMDLILKEYMDEMHELGVKHFDIKIHDVEIQGDKAQWDLRLHIKVGDKIIELRVILHAVKVNGKWILHKIEFI | 1.38 |
| TEDIEHMIKVVEIFLRAVTTGNEDEMKYLMDPRMRLVVGDKIHHGWEEIWKFLEHIREERDKVHTKDTKVYNGRMDINSRVSSTIHFNGVRIEIDHEVHFHIKKINGRWFIEEIRIQ | 1.3 |
| TEDKEIAIRVTEHFIEAIYTGDEDRVRDLLDPEARLDVNGVELHGMRWFTFWLRQIRIHNMYIRHTEVQGDKVHVDMEQDVEFNGKRHELKSHFVLLKVNGRWTVKHYNVR | 2.28 |
| TEDKEKDDEVAHLFLNAVRTGDEELFQDLVDPETRLNVNGQEIHGRENVFRHMRETWDKMGVDHVELKDRRHINGVLILHFEIRVGDKTIHVEYIIEKIDGRWILTKVHIR | 0.569 |
| TEDLEKVHTFLNLLLHSRLTGDEDSLHRMADPNMRVDQGEYQHHGRELFIEWTKRELEHLRLRHYHLEDIDIYNGVVKVTGKMDVEVNGRRHHVDVTLIVLKINGRWHLKSVHIS | 1.24 |
| TEDLHQYHEFLEEMIRWLRTGDWEAKHRNADPNVRLDFNGVDFHGMEIVAKIEMELRRRVDHIELEVKRSEIVNGRVHIDQVYHIEYNGRSYEVKSELIVKKVNGKWLIKEERVR | 0.322 |
| TEDMEVMRRILELFIELVTTGDWEILRELLDPNVRIEIGDKQLHGRELVSNSLLLLGVDHIRVKDMKIQGEKLHIETENEINGVKLNTHILLLKINGRWLIKDLSVK | 1.29 |
| TEDQEEAKRLLHHLAHNWFTGNEHILTRLADPNTRMNVNGRDYHGREIMHETVREILERLGIDHFEIKDMRFIVQGEKIHIHIHIRSTVNGQEEDFRLSISVHKIDGRWVIKEINLHFI | 0.511 |
| TEDQEQAEEHFREEIHHWRTGDEDQLRRLMDPNTRIEIGDKVLHGREHAELFLRRYKGLKIDRFEIRHRDHQGDYVILHTHFRGEVNGRDFENTVQLVVLKVDGRWFLKYIRVE | 1.64 |
| TEDQEQLEQHIRELTHNWHTGDFDSLKKLFDPNVKLEIGDKEYHGRELAEKYIRDELRHLRIEHVENREWRLINGVIILHTRLVGNIDGQRVERDTEIYVKKFDGQWIIEIFRVH | 1.34 |
| TEDREEVRRWWKDLLRSLHTGDEEVLRKQIDPNVKLVDEDERSVGMDRFVKFMHFINREIRIERIHIKRLRLIDGQLEADTRMHVNIDGRIEETDVHILAKKVDGKWLLTSVILD | 1.48 |
| TEDREIAKKFAEHMIHNYETGDFERILELLDPHTKIHVNGKDMHGREHWLHHLKKWGVDRIESEIRHVEIQGDKVKVDTELHYGDKTIERTVIFEKFDGRWVLREVRVD | 1.12 |
| TEDRESILKLITMEQRNLRTGDEERWHELADPDYRLEFENREIHGREHAIRFMIETTLKLGVDHVELIINDVKWQGDKLHIDGHLRLEIGDKIIEERVIIINLKVNGRWLLRRKHVG | 1.03 |
| TEDSKLITDVLRHFTEAFITGDEHTLKRMADPHVRTEWDGVHLHGWEKFLKFIVTEHRKLGIDHMRVEVDHIESYGDKIHVEGTLVVIINGQEISRHVELVMVKIDGVWLFKSRHFR | 0.706 |
| TEDVRHADEMIERVIESLTTGDEESYKRLLDPDVRVLIGDKRIHGMEAVLEWFRRIDHVQIHDVRVREVEIVNGRADVRMEFDLTHRINGVEHRFKFESEMLLVKIDGQWRLHSDKRI | 1.57 |
| TEDWELMKKAMEDLSRDLSTGDFERINRMLDPHTKLVVGDKEHHGMHAWEIFVKRIDHERSVEVRHFRIIGDKIDIDGTLHAEYGEKRITLKVHIIDSKVNGKWVIEVLSFK | 1.4 |
| TEEDEELKRWFDHFLESMITGDEHQNTELFDPNVLIHINGRQLHGRESAKIFIKEIRYEEIEVTHVRKYGNYVISSGVVRVRINGQESTIKTEVIVLKVNGQWLIRFVRFE | 2.26 |
| TEEDEEVEWVLKVLKETNDTGDEHTFRKLMDPRTKFHINGKDYIGMEAWREQVEKLGFKHIHDIKIEDMRVYNGRIQLHGRVDMVQGDKKIDMHVILIAVKVNGRWLLRFDIVE | 1.38 |

| Sequence | protease stability score |
| --- | --- |
| TEEDEFWERYVQLLRELWITGDEETWKNLADPNTRLHINGVTAHGREEVEHVYKKILEDLGIDVRHIHRIDVQGDKMRIDSRNNIDGQIFRLHIENHFVNGRLQFIRMEVH | 1.25 |
| TEEDEHLYEYLESLFHHQRTGDEDKYERLLDPHARLDINGVDVIGMERVVHQWHEHWRRYKNMRIHFRHYEIKVFNGRAHLRIEGHMEYGDKKSEVELLFIAIKINGRWVVKQVHITVH | 1.82 |
| TEEDEHSRVAIEQTIRTLETGDEKEWERELDPHVRINIGEKHFHGRERAVELWLRLGVKHFRIKEVEHQGNKIIVHGSINVNGVKIEMYSIAEKIDGKWHLTHMHIP | 1.53 |
| TEEDELAHRFWELIRTSFLTGDEESLERLADPNVRLEIGDKELHGREQFSHIMREFVERFKNLRVRVEEERVVGDKAESIEDFHFNGQNLKVLTIVKKINGKWVIKSIVIKIE | 1.7 |
| TEEDELLDKLAEIFSKVLKTGDFDELLSLFDPHTRLEVRQGDKEFHYHGREEVVRFWRHVRNRIDHSQLELHDVKSVNGVANSDSEVILRVNGKEIRIHHILLFVVINGRSKMVVIEFR | 1.68 |
| TEEDELRELAIRLLEESLRTGNEQDLRELFDPNTRIVIGNKDFHGMEHWVRWVFEWRKEHGIKMRIEVKRVDVQGDKIRIDTVLHIDVGDKHHVTRTELHAKKVDGKWFSTELRIN | 2.23 |
| TEEDELYRLLREHLKHVIETGDEELTQKNLDPHVKVELQIGDKKFTLHGRDQFTQWWKELHEKVKNIRFEDRHVQFFDGVAVVHVEINVNGRHIELIVIAEKVNGQWRIKHVEIRFL | 1.53 |
| TEEDEMVHRQTEILEESIVTGDWKTLRNFVDPNMRLEIGDKTVHGWHAMSHILRRIDHINSVELHKVEVYGEKVHVDTIVDGIVDGRRTHLRTHIIALKFNGRWILTSNKIE | 1.03 |
| TEEDEMWHKFMEHYVHNFLTGDPNKAKKLADPDTRFEIDGKDVVGMERIIDEFLKVPGLRSEIKRVTFIGDKIHIDGRMIINGVETKVDIDIHVVNGVIKSIHIRVR | 0.74 |
| TEEDEMWKELSDILLEIHETGDWDRLIRLVDPDVKVNIDGKDLHGWQEVAHTIRVLLEQFKGVKIIIRHVEIQGDKVHIHMEIRQGDKHYEVHLHYIVVNGKIKQMHMHRR | 1 |
| TEEDERAKHWAERWIRLLETGDFEILTELLDPNVRVEIDINGKKIELHGMETISEDLRRRLEELGFKHFHIRDMKSQGDKSRVRGEVEVNGKPVDVHIVLNIVDGKLKTFRFENK | 1.35 |
| TEEDEVTEELARNWVKYFLTGDEEQLHRLMDPNARFHTIVGDKHVHRHGRESIVHWIDHVLRHIRIEEVHIRRVHIWNGRVDINNEEIGRVGDKHYRTEVRIHLRIVDGVIRSVDIDIE | 0.693 |
| TEEDHELRLAHEELHRDLDTGDWESFMRYMDPRARVHYNGREFIGREFAVKFYLDVLNKYKGLTFRIHDIRIFDGVLFVRVKFHFDGQWLHSSEVALKVNGQWHNHHVSFI | 0.611 |
| TEEDHFLKRELEKYIHSILTGDEDSTQHMIDPHARVFWNGVELHGRDAITKIMREWRIRHVRIERFEVQGDKIESHSISHMEINGKKHDHIFRITSEKYDGRWVIRELSIE | 1.51 |
| TEEDHHAKRMTKMWEEALITGNEHLVKEMFDPHARYRQGEWDLVGREEISKFVLTNLEEWRIDHHHTHSLHLQGEKSHVRSRVLGIFDGKRFETHLQVDVEVINGKIHDLTIRIT | 0.678 |
| TEEDHKAFTMVELFLNALTTGDERTLEKLVDPNVRVNIDGRDVHGMSILIRWREHLRFEFREVNNKRSELQGEKLHVDSEVDRHIRIGDKEDREHIRIHFHLLKINGRWFIEEVRML | 1.36 |
| TEEDKLIEKAWRLFLHILHTGDWEEFHRLADPHMREDVNGVNLIGREDVLRHFIRLIEELGVKHSHVKDFRIHIFNGVIHTIMDVRTEYGDKSVDVRIHLEIEKIDGRWFLRTARIRLT | 1.51 |
| TEEDKMEHDYAKLFMFLERTGDETLFEKLVDPDVKHIFDGVHLHGREEVASFLHHLLREWRIHHIDLKRVDVVNGKIEIDGRRNGDFDGKRYETHFTIHVFLYDGRIKWFEIRIR | 1.46 |
| TEEDRETEKFLRILQEVHRTGDWRRFDEFLDPNVRIHIGDKEYHGREEFTRFFKEMGIDHHEVKHYRLVDGQLDLDVTERFNGVTVKTKLITHKFDGRWLITEIRVK | 1.19 |
| TEEDRFAHEFVRKWIENFLTGNEEKLHELADPNMKIDVGDKHLHGMEEWTRFLRDLGWRTEIRLRDIEVQGNKAFIRGEVHISINGRTDKTETRIILHVVNGRLKEVYVHHQ | 1.53 |
| TEEDRLVDKITKELLTALTTGDEEIFLELLDPNARVEYNGKEMHGREFYRKIFEEEEKKIKNLRVEIHDYDAQGDKIHVDQRRHFNGRTYDYRLHYLVVNGKVKSVFVRIL | 0.831 |
| TEEEDEASRLMEEFLKHHETGDWEELKKMADPDARYHETVNGKRIERHGRDDLITWLRKFLEKFKNMRLHIDEMRLIGNKNILHGTLRIGDKDIESRIILIIIDGRIKEIEIIIK | 1 |
| TEEEDLIRRQIHELRETLQTGDEHLLNWLLDPHARMEIDGQEVWGREEIAKFLHRFKNITVLFNDMIVQGDKVDIDGQIEFNGRRRRARLISDKVDGQWIDHDIIII | 1.3 |
| TEEEDRLREIAELIHKFLTTGDWEKIFRMLDPHVRVEIHVNGRDIIIHGWKNVHRLLEYELEELRFHQSDVHELRVQGDKAHSITEWDGVIDGRRQNLHVNVHFVTVDGRIRSIKFEFR | 1.57 |
| TEEEEAAKRVFRLLLENAKTGDEDHLRELIDPNVRIHVDGRTLIGMEQFKRFWSEMRVHHWDQKSVDFVNGRVHSDTIINSHVDGQTIHIDVRIIITKIDGQWVVESFSVS | 1.17 |
